B5: PSMGFR minus 10 amino acids from the C-terminus (peptide)
peptide: GTINVHDVETQFNQYKTEAASRYNLTISDVSVSDV
notes: also called C-10; C-10 PSMGFR

How the values were obtained:
[1] = molecular target: MUC1-41TR (MUC1 with an extracellular domain truncated after 41 tandem repeats) (Homo sapiens (Human)) (UniProt P15941); assay: FACS on HCT-MUC1-41TR cells
[2] = molecular target: T1, PSMGFR peptide (Primary Sequence of the MUC1 Growth Factor Receptor); assay: ELISA on PSMGFR peptide
T1 construct: synthetic peptide, immobilized on ELISA plates or attached to beads; also called MUC1* peptide; synthetic MUC1* extra cellular domain peptide
T1 peptide: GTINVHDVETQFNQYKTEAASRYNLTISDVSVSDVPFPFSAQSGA
From the text: FIGS. 21A-21B show an ELISA graph of several anti-MUC1* scFv-Fc fusion proteins wherein the Fc region has been eliminated or mutated. Shown are hu MN-E6 scFv-Fc-wt, hu MN-E6 scFv-Fc-Y407R, hu MN-E6 scFv-Fc-hingeless, and hu MN-E6 scFv-Fc-Y407R-hingeless. All mutants bind to the PSMGFR peptide of the MUC1* extracellular domain (A). An ELISA graph of several anti-MUC1* scFv-Fc fusion proteins wherein the Fc region is either wild type or mutated. Shown are hu MN-E6 scFv-Fc-wt, hu MN-E6 scFv-Fc-hingeless, and hu MN-C3 scFv-Fc is shown (B). All bind to the PSMGFR peptide of the MUC1* extracellular domain.

[3] = molecular target: T1, PSMGFR peptide (Primary Sequence of the …); assay: ELISA on immobilized PSMGFR, N-10 and C-10 peptides
Procedure: FIGS. 22A-22C show graphs of ELISAs wherein the assay plate surface was immobilized with either PSMGFR peptide, PSMGFR minus 10 amino acids from the N-terminus or minus 10 amino acids from the C-terminus. The MN-C3 antibody variants were then assayed for binding to the various MUC1* peptides. A) Purified mouse monoclonal MN-C3 antibody; B) Impure humanized MN-C3 antibody; and C) the humanized MN-C3 scFv-Fc. ELISAs show binding to the PSMGFR peptide as well as to certain deletion peptides.

[4] = molecular target: T2, MUC1-41TR (MUC1 with an extracellular domain truncated after 41 tandem repeats) (Homo sapiens (Human), UniProt P15941 24-1255); assay: CAR T co-culture, photographs; no T cell induced clustering
T2 construct: only minimally cleaved to MUC1*; also called HCT-MUC1-41TR; HCT-MUC1-18
T2 sequence (P15941 other isoform, or with tags, fused parts or gaps limits assumed): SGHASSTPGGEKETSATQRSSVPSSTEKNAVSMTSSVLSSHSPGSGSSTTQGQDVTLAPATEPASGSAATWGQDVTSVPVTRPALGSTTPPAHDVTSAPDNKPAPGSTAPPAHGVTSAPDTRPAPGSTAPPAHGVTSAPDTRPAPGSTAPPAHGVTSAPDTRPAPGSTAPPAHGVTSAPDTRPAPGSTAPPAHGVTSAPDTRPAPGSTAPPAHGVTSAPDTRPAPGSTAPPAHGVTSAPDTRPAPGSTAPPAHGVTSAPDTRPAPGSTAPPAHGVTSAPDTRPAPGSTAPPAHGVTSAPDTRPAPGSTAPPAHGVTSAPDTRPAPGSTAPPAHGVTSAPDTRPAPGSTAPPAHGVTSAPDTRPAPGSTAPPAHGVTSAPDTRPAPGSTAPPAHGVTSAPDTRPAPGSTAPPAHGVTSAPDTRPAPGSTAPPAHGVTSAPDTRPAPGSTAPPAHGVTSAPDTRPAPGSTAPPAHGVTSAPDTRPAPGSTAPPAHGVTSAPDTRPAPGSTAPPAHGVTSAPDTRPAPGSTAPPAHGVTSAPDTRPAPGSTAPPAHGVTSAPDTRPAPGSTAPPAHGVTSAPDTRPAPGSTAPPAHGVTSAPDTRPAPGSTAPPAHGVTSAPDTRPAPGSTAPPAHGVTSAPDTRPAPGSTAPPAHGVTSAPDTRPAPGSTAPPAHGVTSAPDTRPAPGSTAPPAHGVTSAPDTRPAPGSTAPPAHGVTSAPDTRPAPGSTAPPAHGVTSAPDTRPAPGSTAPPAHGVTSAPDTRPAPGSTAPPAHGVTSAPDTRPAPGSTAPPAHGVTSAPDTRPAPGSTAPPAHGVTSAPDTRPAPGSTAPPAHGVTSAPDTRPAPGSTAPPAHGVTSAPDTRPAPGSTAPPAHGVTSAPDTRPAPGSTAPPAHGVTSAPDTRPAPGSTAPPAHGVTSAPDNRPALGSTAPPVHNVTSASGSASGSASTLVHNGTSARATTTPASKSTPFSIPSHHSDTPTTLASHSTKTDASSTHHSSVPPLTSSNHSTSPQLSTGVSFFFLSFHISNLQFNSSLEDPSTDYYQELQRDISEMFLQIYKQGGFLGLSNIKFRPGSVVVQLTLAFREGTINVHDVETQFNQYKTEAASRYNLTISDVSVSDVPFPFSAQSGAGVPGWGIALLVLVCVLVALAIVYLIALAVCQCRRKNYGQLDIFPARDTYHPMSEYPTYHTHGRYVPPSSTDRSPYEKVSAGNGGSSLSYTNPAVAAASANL
Procedure: FIGS. 75A-75P show photographs of a CAR T co-culture assay in which the targeting antibody fragment of the CAR is huMNC2scFv wherein CAR44 has a CD8 transmembrane domain, followed by 41BB-3zeta and CAR50 has a CD4 transmembrane domain, followed by 41BB-3zeta. […] The HCT-MUC1-41TR cancer cells were also incubated with conditioned media from cells transfected with MMP9 or ADAM17 before co-culture with the CAR T cells. Conditioned media of the MMP9 or ADAM17 expressing cells were also incubated with APMA which is an activator of those cleavage enzymes. The images shown are an overlay of the 4× bright field image and the fluorescent image of the same showing cancer cells dyed with a red CMTMR lipophilic dye. FIGS. 75A, 75E, 75I, 75M show photographs of cells co-cultured with untransduced human T cells. FIGS. 75B, 75F, 75J, 75N show photographs of cells co-cultured with human T cells transduced with anti-MUC1* CAR44 at an MOI of 10. FIGS. 75C, 75G, 75K, 75O show photographs of cells co-cultured with human T cells transduced with anti-MUC1* CAR50 at an MOI of 10. FIGS. 75D, 75H, 75L, 75P show photographs of cells co-cultured with human T cells transduced with anti-MUC1* CAR44 at an MOI of 50, which increases transduction efficiency. […] There is no T cell induced clustering and the number of cancer cells has not decreased. […]

[5] = molecular target: T3, PSMGFR minus 10 amino acids from the N-terminus; assay: selection criteria, FIGS. 3A-3C named
T3 construct: also called N-10; N-10 PSMGFR
T3 peptide: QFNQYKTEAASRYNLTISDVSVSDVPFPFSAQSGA
Procedure: (§1) FIGS. 3A-3C show results of competitive ELISA assays. The PSMGFR MUC1* peptide is immobilized on the plate and dimeric NM23-H1, aka NME1, is added either alone or after the MN-E6 antibody has been added (A). The same experiment was performed wherein NM23-H7, NME7-AB, is added alone or after MN-E6 has been added (B). […] In a similar experiment (C), PSMGFR or PSMGFR minus 10 amino acids from the N-terminus, aka N-10, is immobilized on the plate. Dimeric NM23-H1 is then added. Anti-MUC1* antibodies MN-E6, MN-C2, MN-C3 or MN-C8 are then tested for their ability to compete off the NM23-H1.

[6] = molecular target: T1, PSMGFR peptide (Primary Sequence of the …); assay: competitive ELISA on immobilized PSMGFR or N-10 peptide
Procedure: as §1

dimeric NME1 = molecular target: T4, dimeric NME1 (human, UniProt P15531 1-152, limits assumed); assay: ELISA on immobilized peptide
T4 construct: used as a dimer; also called dimeric NM23-H1; NM23-H1 dimers
T4 sequence (P15531 whole entry): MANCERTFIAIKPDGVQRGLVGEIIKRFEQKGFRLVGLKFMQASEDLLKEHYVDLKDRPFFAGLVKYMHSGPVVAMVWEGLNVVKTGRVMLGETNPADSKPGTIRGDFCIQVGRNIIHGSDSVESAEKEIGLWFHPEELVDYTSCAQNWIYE

NME7-AB = molecular target: T5, NME7-AB (human, UniProt Q9Y5B8 92-376); assay: ELISA on immobilized peptide
T5 construct: also called NM23-H7
T5 sequence: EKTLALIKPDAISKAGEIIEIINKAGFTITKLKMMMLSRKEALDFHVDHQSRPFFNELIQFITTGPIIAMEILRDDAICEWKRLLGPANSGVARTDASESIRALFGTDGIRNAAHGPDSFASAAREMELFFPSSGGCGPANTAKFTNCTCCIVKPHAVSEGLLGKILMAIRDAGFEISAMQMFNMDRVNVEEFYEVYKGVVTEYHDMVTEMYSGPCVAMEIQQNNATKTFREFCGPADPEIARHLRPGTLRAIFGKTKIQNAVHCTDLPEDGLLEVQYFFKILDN

[7] = molecular target: T1, PSMGFR peptide (Primary Sequence of the …); assay: ELISA, surface coated with PSMGFR peptide or a control peptide
Procedure: Humanized MN-C2 scFv is then incubated with the surface, washed and detected according to standard methods.

[8] = molecular target: B5; assay: ELISA on immobilized N-10 and C-10 peptides

Chain of MUC1-41TR (MUC1 with an extracellular domain truncated after 41 tandem repeats) (Homo sapiens (Human)) (P15941 other isoform, or with tags, fused parts or gaps limits assumed): as the sequence (P15941 other isoform, or with tags, fused parts or gaps limits assumed) above

Work on VU4H5 (antibody) yielded a percent of cells positive [1] of 95%.

B1: humanized MN-E6 scFv (scFv, V domains shown, not shown: small tags and cut ends)
VH: EVQLVESGGGLVKPGGSLRLSCAASGFTFSRYGMSWVRQAPGKRLEWVSTISGGGTYIYYPDSVKGRFTISRDNAKNTLYLQMNSLRAEDTAVYYCTRDNYGRNYDYGMDYWGQGTLVTVSS
VL: EIVLTQSPATLSLSPGERATLTCSATSSVSYIHWYQQRPGQSPRLLIYSTSNLASGIPARFSGSGSGSDYTLTISSLEPEDFAVYYCQQRSSSPFTFGSGTKVEIK
notes: several humanized MN-E6 single chain proteins were generated; the one in the assays is not identified; also called hu MN-E6 scFv
B1: binds [2].

B2: humanized MN-C3 antibody (antibody, V domains shown)
VH: QVQLVQSGAEVKKPGASVKVSCKASGYTFTDYAMNWVRQAPGQGLEWMGVISTFSGNTNFNQKFKGRVTMTTDTSTSTAYMELRSLRSDDTAVYYCARSDYYGPYFDYWGQGTTLTVSS
VL: DIVMTQTPLSLSVTPGQPASISCRSSQTIVHSNGNTYLEWYLQKPGQSPQLLIYKVSNRFSGVPDRFSGSGSGTDFTLKISRVEAEDVGVYYCFQGSHVPFTFGGGTKVEIKR
notes: tested impure; also called Impure humanized MN-C3 antibody
B2: binds [3].

B3: CAR50 (MNC2 scFv, CD4 transmembrane domain, 41BB-3zeta) (other)
chain: EVQLVESGGGLVKPGGSLRLSCAASGFTFSGYAMSWVRQAPGKGLEWVSTISSGGTYIYYPDSVKGRFTISRDNAKNSLYLQMNSLRAEDTAVYYCARLGGDNYYEYFDVWGKGTTVTVSSGGGGSGGGGSGGGGSDIVLTQSPASLAVSPGQRATITCRASKSVSTSGYSYMHWYQQKPGQPPKLLIYLASNLESGVPARFSGSGSGTDFTLTINPVEANDTANYYCQHSRELPFTFGGGTKVEIKRTSGQVLLESNIKVLPTWSTPVQPMALIVLGGVAGLLLFIGLGIFFKRGRKKLLYIFKQPFMRPVQTTQEEDGCSCRFPEEEEGGCELRVKFSRSADAPAYKQGQNQLYNELNLGRREEYDVLDKRRGRDPEMGGKPRRKNPQEGLYNELQKDKMAEAYSEIGMKGERRRGKGHDGLYQGLSTATKDTYDALHMQALPPR
notes: chimeric antigen receptor on transduced human T cells; also called huMNC2-CAR50; huMNC2-scFv-CAR50
B3: no binding [4].

B4: mouse monoclonal antibody MN-C2 (antibody, V domains shown)
VH: EVQLEESGGGLVKPGGSLKLSCAASGFTFSGYAMSWVRQTPEKRLEWVATISSGGTYIYYPDSVKGRFTISRDNAKNTLYLQMSSLRSEDTAMYYCARLGGDNYYEYFDVWGAGTTVTVSS
VL: DIVITQSTASLGVSLGQRATISCRASKSVSTSGYSYMHWYQQRPGQPPKLLIYLASNLESGVPARFSGSGSGTDFTLNIHPVEEEDAATYYCQHSRELPFTFGGGTKLEIKR
notes: mouse monoclonal; also called Min-C2
B4: binds [5]; binds [6].

B5: no binding (dimeric NME1); no binding (NME7-AB).

B6: humanized MN-C2 scFv (scFv, V domains shown)
VH: EVQLVESGGGLVKPGGSLRLSCAASGFTFSGYAMSWVRQAPGKGLEWVSTISSGGTYIYYPDSVKGRFTISRDNAKNSLYLQMNSLRAEDTAVYYCARLGGDNYYEYFDVWGKGTTVTVSS
VL: DIVLTQSPASLAVSPGQRATITCRASKSVSTSGYSYMHWYQQKPGQPPKLLIYLASNLESGVPARFSGSGSGTDFTLTINPVEANDTANYYCQHSRELPFTFGGGTKVEIKR
notes: several humanized MN-C2 single chain proteins were generated; the one in the assays is not identified; also called huMN-C2 scFv; hMN-C2 scFv; not shown: 6x His tag, detected in the flow cytometry assay
B6 gave an EC50 [7] of roughly 333 nM.

B7: mouse monoclonal antibody MN-C3 (antibody, V domains shown)
VH: QVQLQQSGPELVRPGVSVKISCKGSGYRFTDYAMNWVKQSHAKSLEWIGVISTFSGNTNFNQKFKGKATMTVDKSSSTAYMELARLTSEDSAMYYCARSDYYGPYFDYWGQGTTLTVSS
VL: DVLMTQTPLSLPVSLGDQASISCRSSQTIVHSNGNTYLEWYLQKPGQSPKLLIYKVSNRFSGVPDRFSGSGSGTDFTLKINRVEAEDLGVYYCFQGSHVPFTFGSGTKLEIK
notes: mouse monoclonal; also called Min-C3
B7: binds [8]; binds [3].

B8: CAR44 huMNC2-CD8-4-1BB-CD3z (other)
chain: EVQLVESGGGLVKPGGSLRLSCAASGFTFSGYAMSWVRQAPGKGLEWVSTISSGGTYIYYPDSVKGRFTISRDNAKNSLYLQMNSLRAEDTAVYYCARLGGDNYYEYFDVWGKGTTVTVSSGGGGSGGGGSGGGGSDIVLTQSPASLAVSPGQRATITCRASKSVSTSGYSYMHWYQQKPGQPPKLLIYLASNLESGVPARFSGSGSGTDFTLTINPVEANDTANYYCQHSRELPFTFGGGTKVEIKRTTTTPAPRPPTPAPTIASQPLSLRPEACRPAAGGAVHTRGLDFACDIYIWAPLAGTCGVLLLSLVITLYCKRGRKKLLYIFKQPFMRPVQTTQEEDGCSCRFPEEEEGGCELRVKFSRSADAPAYKQGQNQLYNELNLGRREEYDVLDKRRGRDPEMGGKPRRKNPQEGLYNELQKDKMAEAYSEIGMKGERRRGKGHDGLYQGLSTATKDTYDALHMQALPPR
notes: also called huMNC2-CAR44; huMNC2-scFv-CAR44
B8: no binding [4].

B9: mouse monoclonal antibody MN-E6 (antibody, V domains shown)
VH: EVKVVESGGDLVKPGGSLKLSCVVSGFTFSRYGMSWVRQTPGKRLEWVATISGGGTYIYYPDSVKGRFTISRDNAKNTLYLQMSSLKSEDTAMYHCTRDNYGRNYDYGMDYWGQGTSVTVSS
VL: QIVLTQSPAIMSASPGEEVTLTCSATSSVSYIHWFQQRPGTSPKLWIYSTSNLASGVPVRFSGSGYGTSYSLTISRMEAEDAATYYCQQRSSSPFTFGSGTKLEIK
notes: mouse monoclonal; also called Min-E6
B9: binds [5]; binds [6].

— patent US20200390870A1 (MINERVA BIOTECHNOLOGIES, published 2020)
